Series [1] addresses T1, AppA (Escherichia coli periplasmic phytase) (Escherichia coli, UniProt P07102).
T1 construct: mature enzyme lacking the periplasmic signal peptide (residues 1–22)
T1 sequence (P07102 23-432): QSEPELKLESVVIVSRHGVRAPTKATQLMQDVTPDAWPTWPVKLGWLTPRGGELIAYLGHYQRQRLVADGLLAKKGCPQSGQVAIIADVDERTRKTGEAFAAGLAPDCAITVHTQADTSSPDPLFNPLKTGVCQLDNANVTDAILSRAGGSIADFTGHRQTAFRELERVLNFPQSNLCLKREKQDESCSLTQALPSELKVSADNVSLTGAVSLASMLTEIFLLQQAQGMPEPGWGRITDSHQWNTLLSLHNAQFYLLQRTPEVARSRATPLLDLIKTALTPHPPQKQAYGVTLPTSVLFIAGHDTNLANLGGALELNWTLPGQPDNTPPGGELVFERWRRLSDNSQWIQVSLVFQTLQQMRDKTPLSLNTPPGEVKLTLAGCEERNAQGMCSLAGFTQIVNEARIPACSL
As to the kind of experiment: X-ray crystal structure at […] Å (soak at pH […]); phytase inhibition assay at pH […]. It is filed as biochemical.

Substrate in series [2]: O=P(O)(O)O[C@H]1[C@H](OP(=O)(O)O)[C@@H](OP(=O)(O)O)[C@H](OP(=O)(O)O)[C@@H](OP(=O)(O)O)[C@H]1OP(=O)(O)O
As to the kind of experiment: phosphate release kinetics (Km), HPLC of products. The format is biochemical, Escherichia coli. Conditions: active site.

Where [3] appears, read: preferential hydrolysis of the 1D-6-phosphate.
[4] abbreviates: predominantly 1D-1/3-phytase activity.

Residue numbers refer to the chain shown, from its start. Names may count otherwise.

The molecule `O=S(=O)(O)O[C@H]1[C@H](OS(=O)(=O)O)[C@@H](OS(=O)(=O)O)[C@H](OS(=O)(=O)O)[C@@H](OS(=O)(=O)O)[C@H]1OS(=O)(=O)O` [InsS6] came in with an IC50 in series [1] of around 10 µM.

B1: AppA (Escherichia coli periplasmic phytase) (Escherichia coli K-12) (protein)
chain: T1 sequence (P07102 23-432)
notes: mature enzyme lacking the periplasmic signal peptide (residues 1–22)
B1: in series [2] (setting [3]), the Michaelis-Menten constant (Km) is 161 µM, the kcat stood at 10200 s⁻¹ and the kcat/Km was determined as 6.4e+07 M⁻¹ s⁻¹.

B2: AppA-HAE (Escherichia coli K-12; D326A/T327E) (protein)
chain: T1 sequence (P07102 23-432) with D304A, T305E
notes: as for B1
For the molecule B2, in series [2], the Km stood at 33 µM, the kcat was 12.5 s⁻¹ and the kcat/Km was 380000 M⁻¹ s⁻¹.

B3: AppA-HDE (Escherichia coli K-12; T327E) (protein)
chain: T1 sequence (P07102 23-432) with T305E
notes: as for B1
On to B3, for which, in series [2], the Michaelis constant (Km) stood at 92 µM, the kcat is 1690 s⁻¹ and the catalytic efficiency (kcat/Km) amounted to 1.8e+07 M⁻¹ s⁻¹.

B4: AppA-HET (Escherichia coli K-12; D326E) (protein)
chain: T1 sequence (P07102 23-432) with D304E
notes: as for B1
On to B4, for which, in series [2], the Km amounted to 171 µM, the catalytic constant (kcat) was determined as 128 s⁻¹ and the specificity constant (kcat/Km) stood at 700000 M⁻¹ s⁻¹.

B5: AppA-HAT (Escherichia coli K-12; D326A) (protein)
chain: T1 sequence (P07102 23-432) with D304A
notes: as for B1
For B5, in series [2] (setting [4]), the Michaelis constant (Km) is 32 µM, the kcat turned out to be 10.5 s⁻¹ and the kcat/Km stood at 320000 M⁻¹ s⁻¹.

In general, IC50 refers to the point on the concentration scale where inhibition reaches its midpoint. One may read the Km as the substrate concentration at which the rate is half of its maximum. The kcat is the number of substrate molecules converted per active site and unit of time at saturation. The term kcat/Km denotes the turnover number divided by the Michaelis constant.

For the origin of these results see publication PMC9181005, “Insights to the Structural Basis for the Stereospecificity of the Escherichia coli Phytase, AppA” (International Journal of Molecular Sciences, 2022).
